Experimental data from doi:10.1101/2020.06.22.166033.

Molecular target: SARS-CoV-2-RBD-AVI probe (SARS-CoV-2) (UniProt P0DTC2)
Assay: SPR

## CR3022 Fab
  Kd: 25 nM
